Source: article PMC8020760, “Assembly of a dsRNA synthesizing complex: RNA-DEPENDENT RNA POLYMERASE 2 contacts the largest subunit of NUCLEAR RNA POLYMERASE IV” (Proceedings of the National Academy of Sciences of the …, 2021)

Legend:
[1] = target: T1, recombinant NRPD1 fused at its C terminus to a FLAG epitope tag (A. thaliana, UniProt Q9LQ02 1-1453); test: co-IP; purified recombinant proteins, 0.25 µM each, 30 min, room temperature, 50 mM Hepes-KOH pH 7.5, 150 mM NaCl; IP with resin against the tag of one or the other partner (anti-FLAG, anti-V5 or anti-HA); immunoblot; conditions: both partners purified
T1 construct: NRPD1 open reading frame, A. thaliana, codon optimized synthetic gene; full-length NRPD1 is 1,453 amino acids; More in SI Appendix, Methods; also called FLAG-tagged NRPD1; not shown: FLAG, C-terminal, kept
T1 sequence (looked up): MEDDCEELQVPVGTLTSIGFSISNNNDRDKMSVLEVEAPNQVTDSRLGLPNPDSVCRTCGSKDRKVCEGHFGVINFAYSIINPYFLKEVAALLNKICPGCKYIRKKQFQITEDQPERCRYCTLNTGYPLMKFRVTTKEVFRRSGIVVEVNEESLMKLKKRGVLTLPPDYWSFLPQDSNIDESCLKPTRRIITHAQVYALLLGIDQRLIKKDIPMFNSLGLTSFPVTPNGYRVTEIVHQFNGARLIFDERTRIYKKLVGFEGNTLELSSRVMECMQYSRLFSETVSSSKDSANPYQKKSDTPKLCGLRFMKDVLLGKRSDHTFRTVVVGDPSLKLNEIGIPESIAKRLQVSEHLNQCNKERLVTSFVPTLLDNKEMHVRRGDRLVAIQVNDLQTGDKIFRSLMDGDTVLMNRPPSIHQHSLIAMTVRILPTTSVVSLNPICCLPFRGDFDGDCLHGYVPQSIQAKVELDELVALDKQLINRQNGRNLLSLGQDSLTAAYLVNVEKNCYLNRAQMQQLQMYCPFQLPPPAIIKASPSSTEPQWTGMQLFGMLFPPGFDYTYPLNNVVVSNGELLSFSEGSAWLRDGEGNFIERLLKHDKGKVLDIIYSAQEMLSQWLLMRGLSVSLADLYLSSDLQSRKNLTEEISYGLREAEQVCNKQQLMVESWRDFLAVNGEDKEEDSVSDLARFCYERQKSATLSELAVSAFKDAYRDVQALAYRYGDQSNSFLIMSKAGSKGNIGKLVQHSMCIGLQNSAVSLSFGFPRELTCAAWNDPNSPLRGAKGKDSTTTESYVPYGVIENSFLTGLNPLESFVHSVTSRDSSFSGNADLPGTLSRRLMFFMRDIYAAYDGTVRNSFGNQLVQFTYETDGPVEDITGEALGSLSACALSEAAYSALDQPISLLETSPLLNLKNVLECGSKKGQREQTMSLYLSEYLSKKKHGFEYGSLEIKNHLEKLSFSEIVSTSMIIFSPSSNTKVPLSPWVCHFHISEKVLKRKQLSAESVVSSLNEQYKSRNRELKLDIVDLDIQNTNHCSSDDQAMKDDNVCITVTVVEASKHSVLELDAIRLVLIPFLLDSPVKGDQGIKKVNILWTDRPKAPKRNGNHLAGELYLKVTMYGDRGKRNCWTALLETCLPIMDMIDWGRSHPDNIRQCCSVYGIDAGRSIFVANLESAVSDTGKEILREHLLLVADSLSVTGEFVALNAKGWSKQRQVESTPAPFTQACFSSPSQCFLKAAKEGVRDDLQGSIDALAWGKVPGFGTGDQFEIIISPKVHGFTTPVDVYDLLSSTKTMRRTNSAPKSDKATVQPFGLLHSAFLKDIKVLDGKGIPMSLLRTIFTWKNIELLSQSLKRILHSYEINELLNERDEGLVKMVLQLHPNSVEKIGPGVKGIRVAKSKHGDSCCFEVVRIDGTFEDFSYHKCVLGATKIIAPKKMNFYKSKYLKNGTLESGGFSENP

[2] = target: T2, NRPD1-FLAG of plant Pol IV, as the band of about 165 kDa resolved by SDS-PAGE (A. thaliana, UniProt Q9LQ02 1-1453); test: far-Western, overlay or dot blot; far-Western: affinity-purified FLAG-tagged Pol II, Pol IV and Pol V resolved by SDS-PAGE, electroblotted to nitrocellulose, incubated with recombinant V5-tagged RDR2, detected with anti-V5-HRP; conditions: both partners purified
T2 construct: NRPD1, largest catalytic subunit of Pol IV, A. thaliana; full-length NRPD1 is 1,453 amino acids; The band is assigned to NRPD1 by its size only; also called largest Pol IV subunit
T2 sequence (looked up): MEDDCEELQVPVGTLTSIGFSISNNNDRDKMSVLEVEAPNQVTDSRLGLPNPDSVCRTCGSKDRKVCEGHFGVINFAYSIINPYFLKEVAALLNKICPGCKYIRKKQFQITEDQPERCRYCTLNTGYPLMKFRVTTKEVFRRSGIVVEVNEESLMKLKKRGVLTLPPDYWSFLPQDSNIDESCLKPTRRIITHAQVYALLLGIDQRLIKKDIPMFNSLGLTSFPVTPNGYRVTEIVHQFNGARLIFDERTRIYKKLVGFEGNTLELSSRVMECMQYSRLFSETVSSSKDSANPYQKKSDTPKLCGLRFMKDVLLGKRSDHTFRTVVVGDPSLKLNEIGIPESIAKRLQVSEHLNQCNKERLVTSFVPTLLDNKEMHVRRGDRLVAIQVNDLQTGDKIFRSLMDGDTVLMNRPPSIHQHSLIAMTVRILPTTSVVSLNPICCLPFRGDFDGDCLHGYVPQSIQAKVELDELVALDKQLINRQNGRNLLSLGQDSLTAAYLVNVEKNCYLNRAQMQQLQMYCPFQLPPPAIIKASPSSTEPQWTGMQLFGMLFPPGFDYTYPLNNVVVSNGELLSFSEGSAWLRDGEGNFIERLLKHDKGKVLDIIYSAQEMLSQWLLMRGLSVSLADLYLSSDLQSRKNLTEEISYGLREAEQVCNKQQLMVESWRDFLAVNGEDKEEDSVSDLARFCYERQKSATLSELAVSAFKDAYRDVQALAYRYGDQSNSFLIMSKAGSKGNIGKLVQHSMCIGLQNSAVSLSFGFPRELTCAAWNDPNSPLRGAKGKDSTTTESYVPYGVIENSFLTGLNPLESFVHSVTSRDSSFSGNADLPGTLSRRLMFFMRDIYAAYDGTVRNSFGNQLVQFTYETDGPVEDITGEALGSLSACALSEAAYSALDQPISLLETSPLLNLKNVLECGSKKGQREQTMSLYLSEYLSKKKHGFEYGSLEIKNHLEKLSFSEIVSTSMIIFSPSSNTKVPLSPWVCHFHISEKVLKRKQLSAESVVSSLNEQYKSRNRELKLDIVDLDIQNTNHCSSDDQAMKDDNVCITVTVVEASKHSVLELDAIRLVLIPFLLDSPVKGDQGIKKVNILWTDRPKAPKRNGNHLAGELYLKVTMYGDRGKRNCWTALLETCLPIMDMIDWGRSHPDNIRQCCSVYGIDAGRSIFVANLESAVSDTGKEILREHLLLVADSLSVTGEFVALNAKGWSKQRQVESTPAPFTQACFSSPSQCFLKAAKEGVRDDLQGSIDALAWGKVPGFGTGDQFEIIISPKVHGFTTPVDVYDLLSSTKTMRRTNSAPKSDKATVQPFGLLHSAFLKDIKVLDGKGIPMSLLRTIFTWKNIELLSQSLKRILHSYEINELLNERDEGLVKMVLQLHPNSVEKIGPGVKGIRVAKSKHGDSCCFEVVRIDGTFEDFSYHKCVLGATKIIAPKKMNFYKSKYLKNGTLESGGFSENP

B1: recombinant RNA-DEPENDENT RNA POLYMERASE 2 (RDR2), wild type, with N-terminal V5 epitope and 6xHis tags (enzyme, A. thaliana, UniProt O82504 1-1133, looked up)
chain: MVSETTTNRSTVKISNVPQTIVADELLRFLELHLGEDTVFALEIPTTRDNWKPRDFARVQFTTLEVKSRAQLLSSQSKLLFKTHNLRLSEAYDDIIPRPVDPRKRLDDIVLTVGFPESDEKRFCALEKWDGVRCWILTEKRRVEFWVWESGDCYKIEVRFEDIIETLSCCVNGDASEIDAFLLKLKYGPKVFKRVTVHIATKFKSDRYRFCKEDFDFMWIRTTDFSGSKSIGTSTCFCLEVHNGSTMLDIFSGLPYYREDTLSLTYVDGKTFASAAQIVPLLNAAILGLEFPYEILFQLNALVHAQKISLFAASDMELIKILRGMSLETALVILKKLHQQSSICYDPVFFVKTQMQSVVKKMKHSPASAYKRLTEQNIMSCQRAYVTPSKIYLLGPELETANYVVKNFAEHVSDFMRVTFVEEDWSKLPANALSVNSKEGYFVKPSRTNIYNRVLSILGEGITVGPKRFEFLAFSASQLRGNSVWMFASNEKVKAEDIREWMGCFRKIRSISKCAARMGQLFSASRQTLIVRAQDVEQIPDIEVTTDGADYCFSDGIGKISLAFAKQVAQKCGLSHVPSAFQIRYGGYKGVIAVDRSSFRKLSLRDSMLKFDSNNRMLNVTRWTESMPCFLNREIICLLSTLGIEDAMFEAMQAVHLSMLGNMLEDRDAALNVLQKLSGENSKNLLVKMLLQGYAPSSEPYLSMMLRVHHESQLSELKSRCRILVPKGRILIGCMDEMGILEYGQVYVRVTLTKAELKSRDQSYFRKIDEETSVVIGKVVVTKNPCLHPGDIRVLDAIYEVHFEEKGYLDCIIFPQKGERPHPNECSGGDLDGDQFFVSWDEKIIPSEMDPPMDYAGSRPRLMDHDVTLEEIHKFFVDYMISDTLGVISTAHLVHADRDPEKARSQKCLELANLHSRAVDFAKTGAPAEMPYALKPREFPDFLERFEKPTYISESVFGKLYRAVKSSLAQRKPEAESEDTVAYDVTLEEAGFESFIETAKAHRDMYGEKLTSLMIYYGAANEEEILTGILKTKEMYLARDNRRYGDMKDRITLSVKDLHKEAMGWFEKSCEDEQQKKKLASAWYYVTYNPNHRDEKLTFLSFPWIVGDVLLDIKAENAQRQSVEEKTSGLVSI
binding result [1]: binds
binding result [2]: binds
